# Results reported in the nanobody polyreactivity screen of Harvey et al. (2022).
# Assay: yeast display, Sf9 membrane polyspecificity reagent, FACS + sequencing; frameworks hold sequencing errors
# Summary of the method: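 Galactose induction of a Saccharomyces cerevisiae BJ5465 synthetic nanobody display library ran 36–48 hours. The cells were then stained for 1 hour at 4 °C with 10% biotinylated, detergent-solubilized Sf9 membrane reagent, pulled down on streptavidin microbeads and FACS-sorted into low and high (top ~1%) gates on expression and reagent-binding fluorescence. Labels for polyreactivity follow the gate of origin.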
row,Sequence,polyreactivity (PSR sort gate)
1,QVQLVESGGGLVQAGGSLRLSCAASGLTLYRYAMGWYRQAPGKEREFVASISWSGGSTYYADSVKGRFTISRDNANNTVYLQMNSLKPEDTAVYYCATDSDTSQLGYDYWGQGTQVTVSS,low polyreactivity
2,QVQLVESGGGLVQAGGSLSLSCAASGSNFVYYAMGWSRQAPGKERELVAAINFRGGNTYYADSVKGRFTISRDNAKNTVYLQMNSLKPEDTAVYYCAADYRWKWIGGARYDYWGQGTQVTVSS,low polyreactivity
3,QVQLVESGGGLVQAGGSLRLSCAASGRTFASNAMGWYTQAPGKERELVAAITISGGRTYYADSVKGRFTISRDNAKNTVYLQMNSLIPEDTAVYYCAAAKHSWRPSYYWGGYWGQGTQVTVSS,low polyreactivity
4,QVQLVESGGGLVQAGGSLRLSCAASGFIFYRYAMGWYRQAPGKERELVAAITGGGSTYYADSVKGRFTISRDNAKNNFYLQMNSLKPEDTAVYYCAARKRYWFTPYDYWGQGTQVTVSS,high polyreactivity
5,QVQLVESGGGLVQAGGSLRLSCAASGFTFVPYAMGWYRQAPGKERELVAAISYSGGSRYYADSVKGRFTISRDNAKNTVYLQMNSLKPEDTAVYYCAALRWYHYGYWGQGTQVTVSA,high polyreactivity
6,QVPLVESGGGLVQAGGSLRLSCAASGRTFVGYAMGWSSQAPGKDRELVARITGRSGSTYYADSVKGRFTISRDNAKNTVYLQMNSLKTEDTAVYDCAKRITYYYPGYDDWGQGTQVTVAS,low polyreactivity
7,QVQLVESGGGLVQAGGSLRLSCAASGSIFVYYAMGWYRQAPGKERELVASISESDGSTSYADSVKGRFTISRDNAKNTVYLQMNSLKPEDTAVYYCAADPYFFWYSPSFDYWGQGSQVTVSS,low polyreactivity
8,QVQLVESGGGLVQAGGSLRLSCAASGGTFCRNVMGWYRQAPGKERELVAAISRRGSSTYYADSVKGRFTISRDNAKNTVYLQMNSLKPEDTAVYYCARDQYTGADEAGDDYWGQGTQVTVSS,high polyreactivity
9,QVQLVESGGGLVQAGGSLRLSCAASGITFRTNAMGWYRQAPGKERELVAAITTNGGNTYYADSVKGRFTISRDNAKNTVYLQMNSLKPEDTAVYYCNTATYVDSFPDPGDHWGQGTQVTVSS,low polyreactivity
10,QVQLVESGGGLVQAGGSLRLSCAASGFIFYKNAMGWYRQAPGKERELVAAINFSTGRTYYADSVKGRFTISRDNAKNTVYLQMNSLKPEDTAVYDCATKSANPRKYYYWGQVTQVTVSS,high polyreactivity
11,QDQLVESGGGLVQAGGSLRLSCAASGSNYKYYPMGWYRTAPGKERELVAAITWGGGSTYYADSVKGRFTISRDNAKNTFYLQLNSLKPEDTAVYYCAASLFPYQYDAYFSHRKAFYYWGQGTQVTVSS,high polyreactivity
12,QVQLQESGGGLVQAGGSLRMICAASGYISACRQMGWYRKAPGKEREFVATINGGATTNYADSVKGRFTISRDNAKNSVYLQMNSLKPEDTAVYYCAAVIWYVQDYTYWGQGAQVTVSS,high polyreactivity
13,QVQLVESGGGLVQAGGSLRLSCAASGFIFYKYTMGWYRQAPGKERELVAAISTSGGRTYYADSVKGRFTISRDNAKNTVYLQMNSLKPEDTAVYYCAAQYSYPYYKVTLYYWGQGTQVTVSS,high polyreactivity
14,QVQLVESGGGLVQAGGSLRLSCASSGNTFERYAMGWYRQAPGKERELVAAITSSGGSTYYADSVKGRFTISRDNAKNTVYLQMNSLKPEDTAVYYCAASWRPRFYWGQGTQVTVSS,high polyreactivity
15,QVQLVESGGGLVQAGGSLRLSCAASGSILYVYAMGWYRQAPGKEWELVAVITSGGSTNYADSVKGRFTISRDNAKNTVYLQMNSLKPEDTAVYYCAADPYSVYGGDYWGQGTQVTVSS,low polyreactivity
16,QVQLVESGGGLVQAGGSLRLSCAASGRILYWYALGWYRQAPGKERELVAAISRSGGSTSYADSVKGRFTISRDNAKNTVYLQMNSLKPEDTAVYYCAVDRFWRPVRSGTTYDYWGQGTQVTVSS,low polyreactivity

row,Sequence,polyreactivity (PSR sort gate)
1,QVQLVESGGGLVQAGGSLRLSCAASGLILVYYAMGWYRQAPGKERELVAAITPGGSTKYAESVKGRFTISRDNAKNTVYLQMNSLKPEDTAVYYCNALSGPYWYYVYQSHQDDYWGQGSQVTVSS,low polyreactivity
2,QVQHVESGGGLVQAGGSLRLSCAASGSTQTRNPMGWYRKAPGKERELVAAITQRGGSTYYADSVKGRFTISRDNAKNTVYLQMNSLKPEDTAVYYCAKVPSVKYRSIWVLPEYGWGQGTQVTVSS,low polyreactivity
3,QVQLVESGGGLVQAGGSLRLSCAASGLIFRAYAMGWYRQAPGKERELVAAISRRGGSTYYADSVKGRFTISRDNANNTVYLQMNSLKPEDSAVYYCNKDSRSWPFKYDYWGQGTQVTVSS,high polyreactivity
4,QVQLVESGGGLVQAGGSLRLSCAASGSTFGYYAMGWYRQAPGKERELVAGITSGGSTYYADSVKGRFTISRDNAKNTVYLQMNSLKPEDTAVYYCAKPVRHYRGRYFKYDYWGQGTQVTVSS,high polyreactivity
5,QVQLVESGGGLVQAGGSLRLSCAASGRIFKRNTMGWYRQAPGKEWELVAAITRSGGSTHYADSVKGRFTFSRDNAKNTVYLHMNSLKPEDTAVYYCAVRAAAIDRLAQFDYWGQGSQVTVSS,low polyreactivity
6,QVQLVESGGGLVQAGGSLRLRCAASGSIFSGNAMGWYRQAPGKESELVAAISVNGGRTYYADSVKGRFTISRDNAKNTVSLQMNSLKPEDTAVYYCNAVTKVVYHGPYGYDYWGQGTQVTVSS,high polyreactivity
7,QVQLVESGGGLVQAGGSLRLSCAASGSIFLPYAMGWYRQAPGKERELVAAITRRGTSTYYADSVKGRFTISRDNAKNTVYLQMNSLKPEDTAVYYCAAEIKYWYSAYAYGYWGQGTQVTVSS,high polyreactivity
8,QVQLVQSGGGLVQAGGSLRLTCAASGRTFVVYAMGWYRQAPGKERQLVASISSIGEITNYADSVKGRFTISRDYAKNTVYLQMNSLKQEDTAVYYCTAPICGSYNTRRAAEYDYWGQGTQVTVSS,low polyreactivity
9,QVQLVESGGGLVQAGGSLRLSCAASGLIFPRYAMGWYRQAPGKERELVAAITRGGSTYYADSVKGRFTISRDNAKNTVYLQMNSLKPEATAVYDCNAELPVHCSWYDYWGQGTQVTVSS,low polyreactivity
10,QVQLVESGGGLVQAGGSLRLSCAASGFIYKFYAMGWYRQEPGKVRELVAAISDSGGSTYYADSVKGRFTISRDNAKNTVYLQMNSLKPEDTAVYYCNADWSWNNYYDFDYWGLGTQVTVSS,low polyreactivity
11,QVQLVESGGGLVQAGGSLRLSCAASGFIFRYNAMGWYRQAPGKEREFVAAISQGGASTYYADSVKGRFTISRDNAKNTVYLQMNSLKPEDTAVYYCAREPSIFTPSYDYWGQGTQVTVSS,low polyreactivity
12,QVQLVESGGGLVQAGGRLRLICAASGFIFGTYAMGWYRQAPGKEREFDAAINWGGGRTYYADSVKGRFTISRDNAKNTVYLQMISLKAEDTAVYYCNIRLIYYRGSYYSLRFDYWGQGTQVTLSS,high polyreactivity
13,QVQLVESGGGLVQAGGSLRLSCAASGSIFDRNAMGWYRQAPGKERELVAAISRSSGNTYYADSVKGRFTISRDNAKNTVYLQMNSLKPEDTAVYYCNKVDYWGQGTQVTVSS,high polyreactivity
14,QVQLVESGGGLVQAGGSLRLSCAASGSIFGTYAMGWDRQARGQERALGAAIRWSSGSTYYADSVNGRFTISRDNATNTESLQMNSLKPADTAVYYCNAEYVYYWLGATFGYWGQGTQVTVSS,high polyreactivity
15,QVQLVESGGGLVQAGGSLRLSCAASGSTFTSNAMGWYRQAPGKERELVAAISSGGSTSYADSVKGRFSISRDNAKNTVYLQMNSLKPEDTAVYYCAVGVLYAGYFYRYRYYYWGQGTQVTVSS,high polyreactivity
